Measured values: article PMC4454188

Legend:
[1] = target: Strep-3xFLAG-DotJ (E. coli) (L. pneumophila); assay: SEC
[2] = target: DotIC, C-terminal periplasmic domain of DotI (residues 73-212) (L. pneumophila); assay: SEC-MALS
[3] = target: DotIC, C-terminal periplasmic domain of DotI (residues 73-212) (L. pneumophila); assay: crystal structure
[4] = target: His-TraM (R64 TraM, full length) (plasmid R64); assay: SEC-MALS

Which stoichiometry N (DotI per DotJ) [1] does the source give for “DotI (produced in E. coli with Strep-3xFLAG-DotJ) (natural protein)” here?
The stoichiometry N (DotI per DotJ) was 1.87.

How did the stoichiometry N [2] turn out when “DotIC, C-terminal periplasmic domain of DotI (residues 73-212) (domain or fragment)” was run?
The stoichiometry N was 16.

And the stoichiometry N (subunits in a ring (two rings stacked)) [3]?
The stoichiometry N (subunits in a ring (two rings stacked)) was 8.

How did the stoichiometry N [4] turn out when “His-TraM (R64 TraM, full length) (natural protein)” was run?
Its stoichiometry N is 6.
